Data published in patent publication US20150119475.

Molecular target: Snail protein (SNAI1/Snail, expressed as GST fusion in E. coli, GST moiety cleaved with thrombin) (UniProt O95863)
Sequence (O95863 whole entry, the tested form may be a part): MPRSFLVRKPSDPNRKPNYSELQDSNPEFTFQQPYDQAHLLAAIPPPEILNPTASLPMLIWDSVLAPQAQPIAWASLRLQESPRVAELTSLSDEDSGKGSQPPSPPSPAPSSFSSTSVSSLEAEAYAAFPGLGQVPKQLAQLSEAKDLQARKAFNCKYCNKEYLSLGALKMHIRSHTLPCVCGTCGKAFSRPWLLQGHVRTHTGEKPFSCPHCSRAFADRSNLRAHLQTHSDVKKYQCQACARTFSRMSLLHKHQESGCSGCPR

For recombinant Akt3 (ProQinase GmbH), the “in vitro kinase assay with 32P-ATP, detected by autoradiography” value was “Akt1 and Akt3 kinases are able to directly phosphorylate Snail protein”.
